Data taken from the supplement of paper PMC11246515.
± gives the standard deviation of the averaged measurements.

Assay: total protein half-life in vivo (active degradation + dilution); higher = more stable protein
[1] = E. coli NCM3722 delta-clpP delta-lon delta-hslV, growth: N-lim chemostat, doubling time 6 h
[2] = E. coli NCM3722 delta-clpP, growth: N-lim chemostat, doubling time 6 h
[3] = wild type E. coli NCM3722, growth: C-lim chemostat, doubling time 3 h
[4] = wild type E. coli NCM3722, growth: C-lim chemostat, doubling time 6 h
[5] = wild type E. coli NCM3722, growth: C-lim chemostat, doubling time 12 h
[6] = E. coli NCM3722 delta-hslV, growth: N-lim chemostat, doubling time 6 h
[7] = E. coli NCM3722 delta-smpB, growth: N-lim chemostat, doubling time 6 h
[8] = wild type E. coli NCM3722, growth: N-lim chemostat, doubling time 6 h
[9] = wild type E. coli NCM3722, growth: N-lim chemostat, doubling time 12 h
[10] = wild type E. coli NCM3722, growth: P-lim chemostat, doubling time 6 h
[11] = wild type E. coli NCM3722, growth: P-lim chemostat, doubling time 12 h
[12] = E. coli NCM3722 delta-lon, growth: N-lim chemostat, doubling time 6 h

Row | Sequence | total protein half-life in vivo [1] [h] | total protein half-life in vivo [2] [h] | total protein half-life in vivo [3] [h] | total protein half-life in vivo [4] [h] | total protein half-life in vivo [5] [h] | total protein half-life in vivo [6] [h] | total protein half-life in vivo [7] [h] | total protein half-life in vivo [8] [h] | total protein half-life in vivo [9] [h] | total protein half-life in vivo [10] [h] | total protein half-life in vivo [11] [h] | total protein half-life in vivo [12] [h]
1 | MSNLTGTDKSVILLMTIGEDRAAEVFKHLSQREVQTLSAAMANVTQISNKQLTDVLAEFEQEAEQFAALNINANDYLRSVLVKALGEERAASLLEDILETRDTASGIETLNFMEPQSAADLIRDEHPQIIATILVHLKRAQAADILALFDERLRHDVMLRIATFGGVQPAALAELTEVLNGLLDGQNLKRSKMGGVRTAAEIINLMKTQQEEAVITAVREFDGELAQKIIDEMFLFENLVDVDDRSIQRLLQEVDSESLLIALKGAEQPLREKFLRNMSQRAADILRDDLANRGPVRLSQVENEQKAILLIVRRLAETGEMVIGSGEDTYV [P0ABZ1] | 4.83 | 5.19 | 2.31 ± 0.33 | 3.78 ± 0.1 | 5.85 ± 0.23 |  |  |  |  |  |  | 
2 | MSNLTYLQGYPEQLLSQVRTLINEQRLGDVLAKRYPGTHDYATDKALWQYTQDLKNQFLRNAPPINKVMYDNKIHVLKNALGLHTAVSRVQGGKLKAKVEIRVATVFRNAPEPFLRMIVVHELAHLKEKEHNKAFYQLCCHMEPQYHQLEFDTRLWLTQLSLGQNKI | 5.45 ± 0.29 | 1.98 ± 0.15 | 3.09 | 1.64 ± 0.58 | 5.13 | 1.16 | 1.71 | 1.78 | 1.54 ± 0.21 | 1.84 ± 0.49 | 2.74 ± 0.62 | 
3 | MSNNGSSPLVLWYNQLGMNDVDRVGGKNASLGEMITNLSGMGVSVPNGFATTADAFNQFLDQSGVNQRIYELLDKTDIDDVTQLAKAGAQIRQWIIDTPFQPELENAIREAYAQLSADDENASFAVRSSATAEDMPDASFAGQQETFLNVQGFDAVLVAVKHVFASLFNDRAISYRVHQGYDHRGVALSAGVQRMVRSDLASSGVMFSIDTESGFDQVVFITSAWGLGEMVVQGAVNPDEFYVHKPTLAANRPAIVRRTMGSKKIRMVYAPTQEHGKQVKIEDVPQEQRDIFSLTNEEVQELAKQAVQIEKHYGRPMDIEWAKDGHTGKLFIVQARPETVRSRGQVMERYTLHSQGKIIAEGRAIGHRIGAGPVKVIHDISEMNRIEPGDVLVTDMTDPDWEPIMKKASAIVTNRGGRTCHAAIIARELGIPAVVGCGDATERMKDGENVTVSCAEGDTGYVYAELLEFSVKSSSVETMPDLPLKVMMNVGNPDRAFDFACLPNEGVGLARLEFIINRMIGVHPRALLEFDDQEPQLQNEIREMMKGFDSPREFYVGRLTEGIATLGAAFYPKRVIVRLSDFKSNEYANLVGGERYEPDEENPMLGFRGAGRYVSDSFRDCFALECEAVKRVRNDMGLTNVEIMIPFVRTVDQAKAVVEELARQGLKRGENGLKIIMMCEIPSNALLAEQFLEYFDGFSIGSNDMTQLALGLDRDSGVVSELFDERNDAVKALLSMAIRAAKKQGKYVGICGQGPSDHEDFAAWLMEEGIDSLSLNPDTVVQTWLSLAELKK | 4.83 ± 0.48 | 4.47 ± 0.29 | 3.08 ± 0.22 | 5.77 ± 0.31 | 10.1 ± 1 | 4.6 ± 0.19 | 4.21 ± 0.38 | 4.5 ± 0.17 | 7.03 ± 0.19 | 5.9 ± 0.38 | 11.7 ± 0.34 | 4.853 ± 0.045
4 | MSNPILSWRRVRALCVKETRQIVRDPSSWLIAVVIPLLLLFIFGYGINLDSSKLRVGILLEQRSEAALDFTHTMTGSPYIDATISDNRQELIAKMQAGKIRGLVVIPVDFAEQMERANATAPIQVITDGSEPNTANFVQGYVEGIWQIWQMQRAEDNGQTFEPLIDVQTRYWFNPAAISQHFIIPGAVTIIMTVIGAILTSLVVAREWERGTMEALLSTEITRTELLLCKLIPYYFLGMLAMLLCMLVSVFILGVPYRGSLLILFFISSLFLLSTLGMGLLISTITRNQFNAAQVALNAAFLPSIMLSGFIFQIDSMPAVIRAVTYIIPARYFVSTLQSLFLAGNIPVVLVVNVLFLIASAVMFIGLTWLKTKRRLD [P0AFQ2] | 6.67 ± 0.81 | 5.62 |  | 5.36 | 12.8 | 6.1 | 6.04 ± 0.15 | 6.36 ± 0.5 | 12.5 ± 3.1 |  | 12.6 ± 0.43 | 5.56
5 | MSNWPYPRIVAHRGGGKLAPENTLASIDVGAKYGHKMIEFDAKLSKDGEIFLLHDDNLERTSNGWGVAGELNWQDLLRVDAGSWYSKMFKGEPLPLLSQVAERCREHGMMANIEIKPTTGTGPLTGKMVALAARELWAGMTPPLLSSFEIDALEAAQQAAPELPRGLLLDEWRDDWRELTARLGCVSIHLNHKLLNKARVMQLKDAGLRILVYTVNKPQRAAELLRWGVDCICTDAIDVIGPNFTAQ | 4.77 ± 0.94 | 3.75 ± 0.46 | 3.33 ± 0.72 | 5.491 ± 0.049 | 9.38 ± 0.43 | 3.65 ± 0.043 | 3.72 ± 0.12 | 3.87 ± 0.31 | 6.08 ± 0.18 | 5.07 ± 0.11 | 9.88 ± 0.3 | 4.1 ± 0.021
6 | MSQDNNFSQGPVPQSARKGVLALTFVMLGLTFFSASMWTGGTLGTGLSYHDFFLAVLIGNLLLGIYTSFLGYIGAKTGLTTHLLARFSFGVKGSWLPSLLLGGTQVGWFGVGVAMFAIPVGKATGLDINLLIAVSGLLMTVTVFFGISALTVLSVIAVPAIACLGGYSVWLAVNGMGGLDALKAVVPAQPLDFNVALALVVGSFISAGTLTADFVRFGRNAKLAVLVAMVAFFLGNSLMFIFGAAGAAALGMADISDVMIAQGLLLPAIVVLGLNIWTTNDNALYASGLGFANITGMSSKTLSVINGIIGTVCALWLYNNFVGWLTFLSAAIPPVGGVIIADYLMNRRRYEHFATTRMMSVNWVAILAVALGIAAGHWLPGIVPVNAVLGGALSYLILNPILNRKTTAAMTHVEANSVE [P0AA82] |  | 0.878 ± 0.056 | 2.01 |  |  |  |  |  |  |  |  | 
